From patent US20150011431A1 (Scripps Research, published 2015)

Tests used:
CXCR1 [1] = molecular target: T1, CXCR1 (UniProt P25024 1-350, limits assumed); assay: flow cytometry with 2 ug/ml heparin sulfate, IgG normalized to 10 nM; CXCR1-U2OS against parental U2OS cells
T1 construct: whole, on cells; DiscoveRx cells engineered with a luminescent reporter enzyme for beta-arrestin recruitment; also called CXCR1-U2OS; U2OS-CXCR1
T1 sequence (looked up): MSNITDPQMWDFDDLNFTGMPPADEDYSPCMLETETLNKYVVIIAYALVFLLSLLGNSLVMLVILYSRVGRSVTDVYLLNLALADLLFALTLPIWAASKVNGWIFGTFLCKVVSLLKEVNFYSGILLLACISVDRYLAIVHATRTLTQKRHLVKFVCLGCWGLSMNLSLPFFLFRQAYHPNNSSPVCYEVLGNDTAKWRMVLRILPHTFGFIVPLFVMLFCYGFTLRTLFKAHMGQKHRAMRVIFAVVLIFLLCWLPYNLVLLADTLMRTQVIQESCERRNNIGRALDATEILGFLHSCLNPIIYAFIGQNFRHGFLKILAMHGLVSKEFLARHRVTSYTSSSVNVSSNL
Experimental: (§1) Cell culture supernatants were then tested for binding to cells by flow cytometry. The adherent U2OS or CXCR1-U2OS cells were dissociated with Accutase (Innovative Cell Technologies, Inc., San Diego, Calif.), neutralized with an equal volume of media containing 10% serum, centrifuged at 1000 g, and resuspended in PBS with 2% BSA. Next, cells were dispensed into microtiter plates to achieve between 30,000 to 300,000 cells per well, centrifuged again, and resuspended in cell culture supernatant containing expressed IgG, or a dilution of IgG-containing cell culture supernatant. A fluorescent-conjugated anti-Human Fc antibody was used to detect binding of the expressed antibody to cells.
In an exemplary method, variants of V1-51 were made by overlap PCR and subcloned into pFuse vector for expression as described in Example 4. […] These V1-51 variants were paired with heavy chains encoding VH4-34+CDR3-IL8 (SEQ ID NO: 430), VH4-34+CDR3-IL8_CDR1 Cow (SEQ ID NO: 432), VH4-34+CDR3-IL8_CDR2 Cow (SEQ ID NO: 433), or VH4-34+CDR3-IL8_CDR1 Cow CDR2 Cow, (SEQ ID NO: 436). Transfections and ELISA were carried out as described above, and flow cytometry was used to evaluate CXCR1 binding specificity as previously described, with the modification that cells were resuspended in 2% BSA in PBS plus 2 ug/ml Heparin sulfate, and IgGs were normalized to 10 nM during incubation on cells.

CXCR1 [2] = molecular target: T1, CXCR1; assay: flow cytometry, IgG-containing supernatant on CXCR1-U2OS cells, fluorescent anti-human Fc
Experimental: as §1, with “In an exemplary method, BLV1H12 IgG comprising a CDR3 with an IL-8 insert (e.g., the IL-8 sequence replaced a portion of the CDR3) was evaluated for binding to CXCR1 expressing cells by flow cytometry. Briefly, a cell line expressing functionally validated CXCR1 derived from U2OS cells was obtained from DiscoveRx and cultured per manufacturer's instructions (Cat#93-0226C3, DiscoveRx Corporation, Freemont, Calif.). The parental cell line U2OS was obtained from ATCC and cultured under the same conditions as the CXCR1 cells. Cell culture” for “Cell culture”
(§2) Additionally, the human germline CDR3-IL8 IgGs described in Example 5 were evaluated for binding to CXCR1 expressing cells by flow cytometry as described above. IgG binding to CXCR1-U2OS cells is indicated by higher fluorescence values, but non-specific binding to U2OS parental cells is also detectable.

CXCR1 [3] = molecular target: T1, CXCR1; assay: flow cytometry; fluorescence on CXCR1-U2OS cells over fluorescence on parental U2OS cells
Experimental: as §1, with “In an exemplary method, BLV1H12 IgG comprising a CDR3 with an IL-8 insert (e.g., the IL-8 sequence replaced a portion of the CDR3) was evaluated for binding to CXCR1 expressing cells by flow cytometry. Briefly, a cell line expressing functionally validated CXCR1 derived from U2OS cells was obtained from DiscoveRx and cultured per manufacturer's instructions (Cat#93-0226C3, DiscoveRx Corporation, Freemont, Calif.). The parental cell line U2OS was obtained from ATCC and cultured under the same conditions as the CXCR1 cells. Cell culture” for “Cell culture”
as §2

CXCR1 [4] = molecular target: T1, CXCR1; assay: as above; remark: listed apart in the source
Experimental: as §1, with “In an exemplary method, BLV1H12 IgG comprising a CDR3 with an IL-8 insert (e.g., the IL-8 sequence replaced a portion of the CDR3) was evaluated for binding to CXCR1 expressing cells by flow cytometry. Briefly, a cell line expressing functionally validated CXCR1 derived from U2OS cells was obtained from DiscoveRx and cultured per manufacturer's instructions (Cat#93-0226C3, DiscoveRx Corporation, Freemont, Calif.). The parental cell line U2OS was obtained from ATCC and cultured under the same conditions as the CXCR1 cells. Cell culture” for “Cell culture”
In an exemplary method, certain residues in VH4-34 CDR1 and/or CDR2 were substituted with corresponding CDR1 and/or CDR2 residues from BLV1H12. Briefly, the pFuse vector encoding heavy chain VH4-34 CDR3-IL8 was modified by overlap PCR to replace all of CDR1 with sequence from BLV1H12 (VH4-34+CDR3-IL8_CDR1 Cow, SEQ ID NO: 432) or all of CDR2 with sequence from BLV1 H12 (VH4-34+CDR3-IL8_CDR2 Cow, SEQ ID NO: 433).

B1: IgG with VH4-34+CDR3-IL8_CDR1 Cow and light chain V1-51 CDR1 I29V, N32G (antibody)
heavy: not shown
light: QSVLTQPPSVSAAPGQKVTISCSGSSSNVGNGYVSWYQQLPGTAPKLLIYDNNKRPSGIPDRFSGSKSGTSATLGITGLQTGDEADYYCASAEDSSSNAVFGSGTTLTVLGQPKAAPSVTLFPPSSEELQANKATLVCLISDFYPGAVTVAWKADSSPVKAGVETTTPSKQSNNKYAASSYLSLTPEQWKSHRSYSCQVTHEGSTVEKTVAPTECS
notes: IgG, human IgG1 CH1-CH2-CH3; normalized to 10 nM; also called VH4-34 CDR3-IL8 CDR1-Cow / V1-51 CDR1 I29V, N32G
- CXCR1 specificity (CXCR1 [1]): 8.9

B2: IgG with VH4-34+CDR3-IL8_CDR1 Cow CDR2 Cow and light chain V1-51 CDR2 DNNKRP to GDTSRA (antibody)
heavy: not shown
light: QSVLTQPPSVSAAPGQKVTISCSGSSSNIGNNYVSWYQQLPGTAPKLLIYGDTSRASGIPDRFSGSKSGTSATLGITGLQTGDEADYYCASAEDSSSNAVFGSGTTLTVLGQPKAAPSVTLFPPSSEELQANKATLVCLISDFYPGAVTVAWKADSSPVKAGVETTTPSKQSNNKYAASSYLSLTPEQWKSHRSYSCQVTHEGSTVEKTVAPTECS
notes: IgG, human IgG1 CH1-CH2-CH3; normalized to 10 nM
- CXCR1 specificity (CXCR1 [1]): 6.9

B3: IgG with VH4-34+CDR3-IL8_CDR1 Cow and light chain V1-51 CDR2 DNNKRP to GDTSRA (antibody)
heavy: not shown
light: QSVLTQPPSVSAAPGQKVTISCSGSSSNIGNNYVSWYQQLPGTAPKLLIYGDTSRASGIPDRFSGSKSGTSATLGITGLQTGDEADYYCASAEDSSSNAVFGSGTTLTVLGQPKAAPSVTLFPPSSEELQANKATLVCLISDFYPGAVTVAWKADSSPVKAGVETTTPSKQSNNKYAASSYLSLTPEQWKSHRSYSCQVTHEGSTVEKTVAPTECS
notes: IgG, human IgG1 CH1-CH2-CH3; normalized to 10 nM; Only 'DNN (amino acids 51-53)' is printed; positions 54 and 56 are counted on from it
- CXCR1 specificity (CXCR1 [1]): 8

B4: IgG with VH4-34+CDR3-IL8_CDR1 Cow CDR2 Cow and light chain V1-51 CDR2 DNN to GDT (antibody)
heavy: not shown
light: QSVLTQPPSVSAAPGQKVTISCSGSSSNIGNNYVSWYQQLPGTAPKLLIYGDTKRPSGIPDRFSGSKSGTSATLGITGLQTGDEADYYCASAEDSSSNAVFGSGTTLTVLGQPKAAPSVTLFPPSSEELQANKATLVCLISDFYPGAVTVAWKADSSPVKAGVETTTPSKQSNNKYAASSYLSLTPEQWKSHRSYSCQVTHEGSTVEKTVAPTECS
notes: IgG, human IgG1 CH1-CH2-CH3; normalized to 10 nM; also called VH4-34 CDR3-IL8 CDR1-Cow & CDR2-Cow / V1-51 CDR2 DNN to GDT
- CXCR1 specificity (CXCR1 [1]): 16.7

B5: IgG with VH1-24+CDR3-IL8 (antibody)
VH: QVQLVQSGAEVKKPGASVKVSCKVSGYTLTELSMHWVRQAPGKGLEWMGGFDPEDGETIYAQKFQGRVTMTEDTSTDTAYMELSSLRSEDTAVYYCTSVHQETKKYQSPRSAKELRCQCIKTYSKPFHPKFIKELRVIESGPHCANTEIIVKLSDGRELCLDPKENWVQRVVEKFLKRAENSGSGSYTYNYEWHVDVWGQGLLVTVSSAS
light: not shown
notes: IgG; VH cloned before human IgG1 CH1-CH2-CH3 in HC pFuse; cell culture supernatant; also called VH1-24 BLVCDR3IL8
- median fluorescence on CXCR1-U2OS (CXCR1 [2]): 23 AFU
- Ratio of CXCR1/Parental (CXCR1 [3]): 4.3

B6: IgG with VH4-34+CDR3-IL8_CDR1 G31D, Y32K and BLV1H12 light chain (antibody)
VH: QVQLQQWGAGLLKPSETLSLTCAVYGGSFSDKYWSWIRQPPGKGLEWIGEINHSGSTNYNPSLKSRVTISVDTSKNQFSLKLSSVTAADTAVYYCTSVHQETKKYQSPRSAKELRCQCIKTYSKPFHPKFIKELRVIESGPHCANTEIIVKLSDGRELCLDPKENWVQRVVEKFLKRAENSGSGSYTYNYEWHVDVWGQGLLVTVSSAS
VL: QAVLNQPSSVSGSLGQRVSITCSGSSSNVGNGYVSWYQLIPGSAPRTLIYGDTSRASGVPDRFSGSRSGNTATLTISSLQAEDEADYFCASAEDSSSNAVFGSGTTLTVLGQPKSPPSVTLFPPSTEELNGNKATLVCLISDFYPGSVTVVWKADGSTITRNVETTRASKQSNSKYAASSYLSLTSSDWKSKGSYSCEVTHEGSTVTKTVKPSECS
notes: IgG, human IgG1 CH1-CH2-CH3; also called VH4-34 + CDR3-IL8 + E31D, Y32K
- FACS CXCR1/Parental Ratio (CXCR1 [4]): 8.1

B7: IgG with VH4-34+CDR3-IL8_CDR1 Cow and BLV1H12 light chain (antibody)
VH: QVQLQQWGAGLLKPSETLSLTCTASGFSLSDKAVGWIRQPPGKGLEWIGEINHSGSTNYNPSLKSRVTISVDTSKNQFSLKLSSVTAADTAVYYCTSVHQETKKYQSPRSAKELRCQCIKTYSKPFHPKFIKELRVIESGPHCANTEIIVKLSDGRELCLDPKENWVQRVVEKFLKRAENSGSGSYTYNYEWHVDVWGQGLLVTVSSAS
VL: QAVLNQPSSVSGSLGQRVSITCSGSSSNVGNGYVSWYQLIPGSAPRTLIYGDTSRASGVPDRFSGSRSGNTATLTISSLQAEDEADYFCASAEDSSSNAVFGSGTTLTVLGQPKSPPSVTLFPPSTEELNGNKATLVCLISDFYPGSVTVVWKADGSTITRNVETTRASKQSNSKYAASSYLSLTSSDWKSKGSYSCEVTHEGSTVTKTVKPSECS
notes: IgG, human IgG1 CH1-CH2-CH3; also called VH4-34 + CDR3-IL8 + Cow CDR1
- FACS CXCR1/Parental Ratio (CXCR1 [4]): 2.1
